Molecular target: Wildtype human ubiquitin (human, UniProt P0CG47 1-76)
Experiment: NMR titration

binding result: binds
Binder: PEVRFQQQLEQLNAMGFLNREANLQALIATGGDINAAIERLLGS (domain or fragment) [human ubiquilin2 UBA domain (residues 578 to 621)]
